{"source": "patent US20070207960", "biological_target": "full-length, relipidated human tissue factor (UniProt P13726)", "sequence (P13726 33-295)": "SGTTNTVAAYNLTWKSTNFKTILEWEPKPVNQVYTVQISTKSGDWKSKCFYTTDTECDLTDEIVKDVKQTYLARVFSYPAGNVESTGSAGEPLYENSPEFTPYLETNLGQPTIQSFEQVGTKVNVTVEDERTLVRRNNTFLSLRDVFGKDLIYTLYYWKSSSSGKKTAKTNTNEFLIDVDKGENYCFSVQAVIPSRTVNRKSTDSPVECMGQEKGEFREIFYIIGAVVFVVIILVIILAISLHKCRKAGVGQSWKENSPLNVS"}
{"substance": "rFVIIa(K62E)-FFR", "values": [{"measurement": "prolongation of the clotting time of human and rabbit plasma (FIG. 6)", "value": "rFVIIa(K62E)-FFR is a superior inhibitor of coagulation versus both rFVIIa(wt)-FFR and pdFVIIa-FFR at molar ratios of inhibitor:plasma FVII as low as 0.25:1 in both human and rabbit plasma"}]}
